Results as given in US20230416345A1, “NEW TYPE II COLLAGEN BINDING PROTEINS” (Navigo Proteins GmbH, priority 2020, published 2023).

Assays:
[1] = molecular target: T1, hCol2 (human Type II collagen) (Homo sapiens, UniProt P02458); assay: Binding analysis by SPR (Biacore 3000) vs human type II collagen; settings: dimers or tetramers; Langmuir 1:1 model
T1 construct: purchased Chondrex
Procedure: Proteins with affinity tag were purified by affinity chromatography and size exclusion. After affinity chromatography purification using Strep-Tactin Superflow high capacity cartridges (IBA Lifesciences) a size exclusion chromatography (SEC) was performed using an Äkta system and a Superdex™ 200 HiLoad 16/600 column (Cytiva). Fused variants with Aflibercept were purified via MabSelect SuRe (Cytiva) affinity chromatography followed by a size exclusion chromatography (SEC) using an Äkta system and a Superdex™ 200 HiLoad 16/600 column (Cytiva). All chromatography processing steps were carried out on AKTA systems using matrices from Cytiva. Homogenous species of all purified ligands were obtained; no aggregation was detected. Following SOS-PAGE analysis positive fractions were pooled and their protein concentrations were measured. Further analysis included SOS-PAGE, SE-HPLC and RP-HPLC. Protein concentrations were determined by absorbance measurement at 280 nm using the molar absorbent coefficient. Reversed phase chromatography (RP-HPLC) was performed using a Dionex HPLC system and a PLRP-S (5 μm, 300 Å) column (Agilent). Analytic size exclusion chromatography (SE-HPLC) was performed using a Dionex HPLC system and a Superdex200 increase 5/150 GL (Cytiva). Binding of Collagen II was evaluated by SPR measurements using a Biacore 3000 system. Purified Collagen II was obtained from Chondrex.inc and VEGF-165 was obtained from Millipore. Targets were immobilized on a CM5-Sensor via NHS/EDC chemistry (immobilization level ˜1000 RU). Binding molecules were injected at different concentration and affinity was calculated by langmuir 1:1 binding model.
The purified proteins were immobilized on a CM-5 sensor chip (GE Healthcare) using NHS/EDC after PDEA activation resulting in 110-140 RU with a Biacore 3000 system (GE Healthcare). The chip was equilibrated with SPR running buffer (PBS 0.05% Tween pH 7.3). Upon binding, target analyte was accumulated on the surface increasing the refractive index. This change in the refractive index was measured in real time and plotted as response or resonance units versus time. The analytes were applied to the chip in serial dilutions with a flow rate of 30 μl/min. The association was performed for 120 seconds and the dissociation for 120 seconds. After each run, the chip surface was regenerated with 30 μl regeneration buffer (10 mM glycine pH 2.0) and equilibrated with running buffer.
Binding studies were carried out by the use of the BIAcore 3000 (GE Healthcare); data evaluation was operated via the BIAevaluation 3.0 software, provided by the manufacturer, using the Langmuir 1:1 model (RI=0). Evaluated dissociation constants (KD) were standardized against the immobilized protein and indicated. Shown is the change in refractive index measured in real time and plotted as response or resonance unit [RU] versus time [sec].

pig eye sections = assay: Immunohistochemistry staining on pig eye sections; settings: formalin-fixed paraffin-embedded pig eyes; 5 μM or 500 nM protein, 45 min
Procedure: Sections of formalin-fixed paraffin-embedded pig eyes were deparaffinated with xylol and rehydrated with a descending concentration series of ethanol. For antigen retrieval slices were incubated in TE-buffer, pH 9.0 for 5 min. at 110° C. After blocking of endogenous peroxidases with peroxidase blocking solution (Novolink Polymer™ Detection System, Leica, RE7140-K) slices were incubated with 5 μM or 500 nM of CID 211999 (dimer), CID 212000 (dimer), CID 212001 (tetramer) for 45 min at rt. Subsequently binding of proteins was detected with rabbit-anti-StrepTag-antibody (Genscript, A00026) at a dilution of 1:500 and Novolink Polymer™ Detection System. Anti-Collagen Type II antibody (Abcam, #ab34712) at a dilution of 1:10 served as positive control. Tissue slices were incubated with antibodies for 30 min. Washing steps were performed with TBS pH 7.6. For visualization, AEC-staining (Dako, K3461) was used and after washing with water, nuclei were stained with Mayers Hamalum solution (Merck, 1.09249.0500). Results see FIG. 5.

[2] = molecular target: T2, 67B89 (domain of fibronectin) (Homo sapiens, UniProt P02751); assay: ELISA specificity vs 67B89; format: binding
T2 construct: unrelated fibronectin domain EDB (67B89) could be observed; made in house; host or cells: E. coli
Procedure: High binding plates (Greiner, 781061) were immobilized with 2.5 μg/ml recombinant human collagen type II (h Col II, Chondrex, CHX-20051), rabbit collagen type II (rbCol II, prepared from rabbit eyes), porcine collagen type II (p Col II, prepared from porcine eyes), human collagen type I, (h Col I, Sigma, C5483-1MG), human collagen type V (h Col V, Abcam, ab7537), human collagen type III (h Col Ill, Abcam, ab7535) and 67B89 (domain of fibronectin, produced in E. coli) respectively over night at 4° C. ELISA-plates were washed 3 times with PBST (PBS+ 0.1% Tween) and blocked with 3% BSA/0.5% Tween/PBS 2 h at RT. After washing with PBST, dilution series of 1.1 μM to 7×10^−4 nM of dimers (CID 211999, CID 212000), dilution series of 100 nM to 7×10^−6 nM of tetramers (CID 212001 and CID 212704) and dilution series of 10 μM to 2 nM of dimer (CID 212705) were incubated on ELISA-plates 1 h at rt. Plates were washed with PBST and incubated with biotinylated anti-StrepTag-ab (Antikörper-online, ABIN1573895) with a dilution of 1:10.000 for 1 h at rt. The binding was visualized with a-rabbit-IgG-HRP (Sigma, A9169) with a dilution of 1:10.000 and as substrate TMB Plus von KEM EN TEC Diagnostic, Kat-Nr. 4395.

T1 sequence (P02458 182-1241): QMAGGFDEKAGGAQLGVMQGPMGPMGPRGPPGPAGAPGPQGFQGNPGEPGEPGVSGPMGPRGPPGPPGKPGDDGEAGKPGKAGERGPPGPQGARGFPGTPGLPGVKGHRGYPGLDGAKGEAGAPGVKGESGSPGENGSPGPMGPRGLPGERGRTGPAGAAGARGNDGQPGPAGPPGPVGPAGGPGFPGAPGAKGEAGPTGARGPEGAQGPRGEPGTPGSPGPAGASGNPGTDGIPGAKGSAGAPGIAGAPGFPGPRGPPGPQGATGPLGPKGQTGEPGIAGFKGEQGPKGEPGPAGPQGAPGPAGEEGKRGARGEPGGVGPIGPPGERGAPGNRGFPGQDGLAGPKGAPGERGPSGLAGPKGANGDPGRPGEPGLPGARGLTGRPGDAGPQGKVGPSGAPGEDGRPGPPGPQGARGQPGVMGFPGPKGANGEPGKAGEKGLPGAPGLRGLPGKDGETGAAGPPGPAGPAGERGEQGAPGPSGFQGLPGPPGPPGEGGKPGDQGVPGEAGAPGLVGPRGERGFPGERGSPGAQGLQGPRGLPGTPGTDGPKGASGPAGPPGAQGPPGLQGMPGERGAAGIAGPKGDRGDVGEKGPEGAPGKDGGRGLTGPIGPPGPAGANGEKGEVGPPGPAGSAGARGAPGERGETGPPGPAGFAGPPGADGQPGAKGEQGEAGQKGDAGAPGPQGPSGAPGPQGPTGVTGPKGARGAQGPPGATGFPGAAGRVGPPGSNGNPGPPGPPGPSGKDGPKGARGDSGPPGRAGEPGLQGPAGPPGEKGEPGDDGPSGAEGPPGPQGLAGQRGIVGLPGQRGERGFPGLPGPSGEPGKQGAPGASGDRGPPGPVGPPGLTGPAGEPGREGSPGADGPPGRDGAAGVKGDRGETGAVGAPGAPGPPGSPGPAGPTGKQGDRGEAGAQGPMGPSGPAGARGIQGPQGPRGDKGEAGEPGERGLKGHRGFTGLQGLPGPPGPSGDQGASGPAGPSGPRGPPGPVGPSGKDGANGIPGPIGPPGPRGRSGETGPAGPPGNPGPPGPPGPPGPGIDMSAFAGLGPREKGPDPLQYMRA
T2 sequence (P02751 1089-1540 limits assumed): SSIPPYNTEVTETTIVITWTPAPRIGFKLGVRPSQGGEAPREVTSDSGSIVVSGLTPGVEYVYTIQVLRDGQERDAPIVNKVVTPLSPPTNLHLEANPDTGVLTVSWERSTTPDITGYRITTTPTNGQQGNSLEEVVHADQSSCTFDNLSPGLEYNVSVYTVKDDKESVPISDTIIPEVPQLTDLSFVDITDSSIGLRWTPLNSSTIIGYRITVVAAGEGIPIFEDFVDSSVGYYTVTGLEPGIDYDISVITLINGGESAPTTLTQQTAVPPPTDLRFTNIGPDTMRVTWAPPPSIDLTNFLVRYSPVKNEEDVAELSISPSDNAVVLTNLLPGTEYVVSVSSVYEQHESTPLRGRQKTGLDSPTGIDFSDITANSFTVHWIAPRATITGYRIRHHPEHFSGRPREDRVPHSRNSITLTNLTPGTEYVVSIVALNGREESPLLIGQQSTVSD

B1: CID 212000: dimer of SEQ ID NO: 2 (dimer with linker between the monomers) (protein)
chain: IAAKFDEAQSAADSEILHLPNLTEQQRHYFRRWLSDDPSVSTHILTQAQHLNDDQAPKGGGGSGGGGSGGGGSGGGGSIAAKFDEAQSAADSEILHLPNLTEQQRHYFRRWLSDDPSVSTHILTQAQHLNDDQAPKSAWSHPQFEK
modifications: Col2 binding protein (dimer of 211261) (CID212000)
- Affinity [SPR] vs hCol2 [1]: 180 nM
- IHC staining of pig eye sections (pig eye sections): staining of retina, inner limiting membrane (arrow) and vitreous body of pig eye
- binding to domain of fibronectin (67B89) (ELISA) [2]: No unspecific binding
